From publication PMC5340040

Assays:
[1] = target: MgF-actin (rabbit skeletal muscle actin, filament) (rabbit) (UniProt P68135)
[2] = target: MgF-actin (rabbit skeletal muscle actin, filament) (rabbit) (UniProt P68135); remark: listed apart in the source
[3] = target: MgF-actin (rabbit skeletal muscle actin, filament) (rabbit) (UniProt P68135); remark: listed apart in the source

Sequence of Histatin-3 (peptide) (P15516 20-51): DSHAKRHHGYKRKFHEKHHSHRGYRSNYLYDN

In the case of Histatin-3 (peptide), the bundling of 8 μM F-actin (low speed centrifugation): histatin concentration for 50% bundling [1] is reported as 5 µM, the decrease of the fluorescence emission at 581 nm of 5 μM TRC-F-actin (TRC on Gln41) by 8 μM histatin-3 [2] is reported as 22.3% and the NaCl concentration (0-200 mM) at which bundles of 4 μM F-actin induced by 16 μM histatin are largely dissociated (low speed centrifugation) [3] is reported as 100 mM.
